Experimental data: US20230125550A1 (ARCELLX, published 2023)

T1: recombinant human CD123-Fc (human, UniProt P26951 19-305)
T1 construct: not shown: Fc part of CD123-Fc
T1 sequence: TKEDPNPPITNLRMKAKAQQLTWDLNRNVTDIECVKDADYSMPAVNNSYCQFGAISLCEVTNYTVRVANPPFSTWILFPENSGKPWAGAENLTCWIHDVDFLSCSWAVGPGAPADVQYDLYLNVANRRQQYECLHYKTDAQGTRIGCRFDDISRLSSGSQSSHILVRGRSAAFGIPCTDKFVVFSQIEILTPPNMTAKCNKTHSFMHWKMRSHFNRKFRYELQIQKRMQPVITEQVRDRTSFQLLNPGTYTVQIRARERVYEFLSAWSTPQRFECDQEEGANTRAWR

B1: SEQ ID NO: 609 (designed binder)
chain: MGSWWEFEDRLYAIDDRLWALGGSEAELAQFEREIAQFEIWLQEYKGKGNPEVEALDDEATAINSELFAYRHN
notes: D domain, on phage
B2: SEQ ID NO: 594 (designed binder)
chain: MGSWVEFDSRLAAIDYRLEALGGSEAELAWFEYTIANFEHTLQMYKGKGNPEVEALVYEAHAIATELQAYRHN
notes: D domain, on phage
B3: SEQ ID NO: 620 (designed binder)
chain: MGSWNEFVIRLFAIDDRLYALGGSEAELAWFEDEIATFEYELQRYKGKGNPEVEALEYEAEAIVSELFAYRHN
notes: D domain, on phage
B4: SEQ ID NO: 595 (designed binder)
chain: MGSWTEFDERLDAIDWRLEALGGSEAELAWFEGDIALFEQYLQVYKGKGNPEVEALMEEADAIKAELDAYRHN
notes: D domain, on phage
B5: SEQ ID NO: 613 (designed binder)
chain: MGSWYEFMGRLEAIDERLQALGGSEAELAWFEHEIAEFEWSLQWYKGKGNPEVEALRFEAGAIPWELWAYRHN
notes: D domain, on phage
B6: SEQ ID NO: 587 (designed binder)
chain: MGSWIEFEDRLDAITDRLWALGGSEAELAEFEHQIAFFEEDLQWYKGKGNPEVEALHMEAEAIMEELGAYRHN
notes: D domain, on phage
B7: SEQ ID NO: 610 (designed binder)
chain: MGSWDEFEFRLEAIDSRLWALGGSEAELAVFEYEIAQFEFMLQEYKGKGNPEVEALGMEAWAIENELFAYRHN
notes: D domain, on phage
B8: SEQ ID NO: 605 (designed binder)
chain: MGSWEEFNWRLRAIDERLFALGGSEAELAWFEYDIAEFEEQLQVYKGKGNPEVEALRVEAAAIAEELYAYRHN
notes: D domain, on phage
B9: SEQ ID NO: 584 (designed binder)
chain: MGSWHEFEERLMAIEDRLWALGGSEAELAEFEQWIALFEYDLQEYKGKGNPEVEALGMEAFAINNELSAYRHN
notes: D domain, on phage
B10: SEQ ID NO: 592 (designed binder)
chain: MGSWFEFDDRLEAIFDRLWALGGSEAELAMFEFAIAEFEDALQEYKGKGNPEVEALYEEAVAIDEELYAYRHN
notes: D domain, on phage
B11: SEQ ID NO: 614 (designed binder)
chain: MGSWVEFSNRLDAIWERLQALGGSEAELAYFEWEIAEFEWELQSYKGKGNPEVEALNAEADAIEWELEAYRHN
notes: D domain, on phage
B12: SEQ ID NO: 596 (designed binder)
chain: MGSWIEFDERLDAIDFRLWALGGSEAELAWFEGWIAEFESDLQLYKGKGNPEVEALNEEANAIFHELSAYRHN
notes: D domain, on phage
B13: SEQ ID NO: 604 (designed binder)
chain: MGSWIEFMDRLWAIDQRLWALGGSEAELAWFEEEIAWFEEELQVYKGKGNPEVEALEWEATAISEELWAYRHN
notes: D domain, on phage
B14: SEQ ID NO: 603 (designed binder)
chain: MGSWVEFMDRLEAIEERLSALGGSEAELAFFEWEIAEFEEHLQVYKGKGNPEVEALEWEALAITEELAAYRHN
notes: D domain, on phage
B15: SEQ ID NO: 606 (designed binder)
chain: MGSWWEFEIRLDAIDERLWALGGSEAELAWFEQSIAFFENDLQVYKGKGNPEVEALRWEANAIIEELFAYRHN
notes: D domain, on phage
B16: SEQ ID NO: 581 (designed binder)
chain: MGSWYEFSSRLNAIDDRLWALGGSEAELAYFETDIADFESLLQWYKGKGNPEVEALLNEADAIDYELYAYRHN
notes: D domain, on phage
B17: SEQ ID NO: 608 (designed binder)
chain: MGSWYEFVYRLRAIDERLDALGGSEAELAMFEFEIAFFEDQLQRYKGKGNPEVEALVDEAQAIDFELFAYRHN
notes: D domain, on phage
B18: SEQ ID NO: 593 (designed binder)
chain: MGSWFEFDARLMAINDRLWALGGSEAELAAFEYHIALFEDQLQMYKGKGNPEVEALTLEAVAINEELWAYRHN
notes: D domain, on phage
B19: SEQ ID NO: 591 (designed binder)
chain: MGSWVEFDNRLFAIDERLWALGGSEAELAWFEEEIASFEDNLQKYKGKGNPEVEALQLEAFAIMEELDAYRHN
notes: D domain, on phage
B20: SEQ ID NO: 618 (designed binder)
chain: MGSWWEFNARLDAIEDRLMALGGSEAELAYFEDIIASFENILQQYKGKGNPEVEALWYEAYAIEKELNAYRHN
notes: D domain, on phage
B21: SEQ ID NO: 611 (designed binder)
chain: MGSWEEFEWRLDAIDERLWALGGSEAELATFEYEIAIFENELQQYKGKGNPEVEALDSEAYAIERELGAYRHN
notes: D domain, on phage
B22: SEQ ID NO: 607 (designed binder)
chain: MGSWYEFEWRLDAIDRRLWALGGSEAELADFEEEIADFEWMLQNYKGKGNPEVEALVDEASAIQTELWAYRHN
notes: D domain, on phage
B23: SEQ ID NO: 597 (designed binder)
chain: MGSWWEFDSRLDAIDFRLWALGGSEAELAWFEVEIADFEDWLQLYKGKGNPEVEALWHEADAIVTELYAYRHN
notes: D domain, on phage
B24: SEQ ID NO: 617 (designed binder)
chain: MGSWDEFAMRLEAIQARLFALGGSEAELAIFEDEIAFFETMLQDYKGKGNPEVEALEYEAAAIEAELGAYRHN
notes: D domain, on phage
B25: SEQ ID NO: 621 (designed binder)
chain: MGSWYEFLARLYAIDERLWALGGSEAELATFEHWIADFEEQLQSYKGKGNPEVEALTDEAVAIGEELSAYRHN
notes: D domain, on phage
B26: SEQ ID NO: 598 (designed binder)
chain: MGSWYEFDERLDAIFDRLWALGGSEAELAYFEQVIATFEKTLQRYKGKGNPEVEALDTEAKAISWELDAYRHN
notes: D domain, on phage
B27: SEQ ID NO: 585 (designed binder)
chain: MGSWYEFEERLDAIEDRLIALGGSEAELAIFEDIIAFFEQDLQYYKGKGNPEVEALEMEAEAISIELDAYRHN
notes: D domain, on phage
B28: SEQ ID NO: 601 (designed binder)
chain: MGSWFEFGDRLEAIDERLYALGGSEAELAQFEWWIAEFEHHLQDYKGKGNPEVEALEYEADAIWGELHAYRHN
notes: D domain, on phage
B29: SEQ ID NO: 602 (designed binder)
chain: MGSWFEFNDRLDAISERLSALGGSEAELAYFEWQIAVFEKTLQNYKGKGNPEVEALTLEANAIFEELEAYRHN
notes: D domain, on phage
B30: SEQ ID NO: 588 (designed binder)
chain: MGSWMEFEDRLMAIVDRLWALGGSEAELADFEWNIAMFEEELQWYKGKGNPEVEALGDEAEAIEWELYAYRHN
notes: D domain, on phage
B31: SEQ ID NO: 589 (designed binder)
chain: MGSWEEFEDRLFAIDSRLWALGGSEAELAEFENIIASFEEVLQEYKGKGNPEVEALSVEAFAIDRELGAYRHN
notes: D domain, on phage
B32: SEQ ID NO: 612 (designed binder)
chain: MGSWYEFFDRLDAIDERLWALGGSEAELAWFEAEIAEFEMELQGYKGKGNPEVEALDVEAHAIEMELFAYRHN
notes: D domain, on phage
B33: SEQ ID NO: 590 (designed binder)
chain: MGSWEEFLFRLEAIQDRLWALGGSEAELAWFEYEIASFEDVLQSYKGKGNPEVEALSTEAKAIDYELFAYRHN
notes: D domain, on phage
B34: SEQ ID NO: 619 (designed binder)
chain: MGSWIEFWNRLEAIEERLYALGGSEAELAYFEDEIAEFEIYLQQYKGKGNPEVEALKHEAEAINKELMAYRHN
notes: D domain, on phage
B35: SEQ ID NO: 600 (designed binder)
chain: MGSWEEFEDRLWAIDGRLYALGGSEAELAWFEQWIATFEEDLQDYKGKGNPEVEALEYEASAIFEELEAYRHN
notes: D domain, on phage
B36: SEQ ID NO: 582 (designed binder)
chain: MGSWFEFEYRLDAIIDRLFALGGSEAELAEFESMIANFEYSLQEYKGKGNPEVEALYFEADAIVDELTAYRHN
notes: D domain, on phage
B37: SEQ ID NO: 616 (designed binder)
chain: MGSWWEFKYRLDAICFRLAALGGSEAELASFEDEIAYFEEDLQGYKGKGNPEVEALDYEALAIWDELAAYRHN
notes: D domain, on phage
B38: SEQ ID NO: 586 (designed binder)
chain: MGSWHEFEKRLYAIEDRLIALGGSEAELAWFEDSIAWFEWDLQMYKGKGNPEVEALNEEADAIYQELDAYRHN
notes: D domain, on phage
B39: SEQ ID NO: 599 (designed binder)
chain: MGSWYEFQERLDAIDSRLWALGGSEAELAWFEYTIAEFEKELQMYKGKGNPEVEALGTEAVAISEELMAYRHN
notes: D domain, on phage
B40: SEQ ID NO: 615 (designed binder)
chain: MGSWEEFHMRLIAIDERLWALGGSEAELAGFEESIAYFESQLQDYKGKGNPEVEALDYEAHAIWRELYAYRHN
notes: D domain, on phage
B41: SEQ ID NO: 583 (designed binder)
chain: MGSWLEFEYRLDAIYDRLFALGGSEAELAAFEQDIADFEKYLQYYKGKGNPEVEALWEEADAIMWELFAYRHN
notes: D domain, on phage
B42: SEQ ID NO: 622 (designed binder)
chain: MGSWLEFETRLHAIDERLWALGGSEAELAEFEEHIAWFEEDLQFYKGKGNPEVEALDFEADAIGWELWAYRHN
notes: D domain, on phage

Target: T1, recombinant human CD123-Fc
Test: phage ELISA, captured CD123-Fc
Procedure, shortened: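 Readout is the clone-averaged A450 ratio of target-Fc over IgG1-Fc wells, detected with HRP-conjugated anti-M13. Each Fc protein (5 nM) was captured on goat anti-human IgG1-Fc-coated plates. Phage were rescued with VCSM13 from BCMA-panning colonies and added at 5× dilution.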

Row | Binder | ELISA_avg
1 | B1 | 5.5 ratio A450 target/IgG1-Fc
2 | B2 | 3.4 ratio A450 target/IgG1-Fc
3 | B3 | 3.5 ratio A450 target/IgG1-Fc
4 | B4 | 4.5 ratio A450 target/IgG1-Fc
5 | B5 | 3.5 ratio A450 target/IgG1-Fc
6 | B6 | 9.5 ratio A450 target/IgG1-Fc
7 | B7 | 3.6 ratio A450 target/IgG1-Fc
8 | B8 | 5.4 ratio A450 target/IgG1-Fc
9 | B9 | 5.8 ratio A450 target/IgG1-Fc
10 | B10 | 4.1 ratio A450 target/IgG1-Fc
11 | B11 | 5.1 ratio A450 target/IgG1-Fc
12 | B12 | 7 ratio A450 target/IgG1-Fc
13 | B13 | 6.5 ratio A450 target/IgG1-Fc
14 | B14 | 4 ratio A450 target/IgG1-Fc
15 | B15 | 3.2 ratio A450 target/IgG1-Fc
16 | B16 | 3.8 ratio A450 target/IgG1-Fc
17 | B17 | 4.5 ratio A450 target/IgG1-Fc
18 | B18 | 4 ratio A450 target/IgG1-Fc
19 | B19 | 3.3 ratio A450 target/IgG1-Fc
20 | B20 | 3.4 ratio A450 target/IgG1-Fc
21 | B21 | 4.3 ratio A450 target/IgG1-Fc

Row | Binder | ELISA_avg
22 | B22 | 10 ratio A450 target/IgG1-Fc
23 | B23 | 3.2 ratio A450 target/IgG1-Fc
24 | B24 | 3.7 ratio A450 target/IgG1-Fc
25 | B25 | 4.5 ratio A450 target/IgG1-Fc
26 | B26 | 3 ratio A450 target/IgG1-Fc
27 | B27 | 4.1 ratio A450 target/IgG1-Fc
28 | B28 | 4.5 ratio A450 target/IgG1-Fc
29 | B29 | 3.9 ratio A450 target/IgG1-Fc
30 | B30 | 6.8 ratio A450 target/IgG1-Fc
31 | B31 | 3.7 ratio A450 target/IgG1-Fc
32 | B32 | 3.7 ratio A450 target/IgG1-Fc
33 | B33 | 8.2 ratio A450 target/IgG1-Fc
34 | B34 | 5.2 ratio A450 target/IgG1-Fc
35 | B35 | 9.4 ratio A450 target/IgG1-Fc
36 | B36 | 4 ratio A450 target/IgG1-Fc
37 | B37 | 3.1 ratio A450 target/IgG1-Fc
38 | B38 | 3.6 ratio A450 target/IgG1-Fc
39 | B39 | 5.5 ratio A450 target/IgG1-Fc
40 | B40 | 3.9 ratio A450 target/IgG1-Fc
41 | B41 | 3.1 ratio A450 target/IgG1-Fc
42 | B42 | 4.6 ratio A450 target/IgG1-Fc
